Source: patent US20210246166A1 (Bayer, published 2021)
Bridge positions count the residues as written; N and C are the ends. Square brackets hold non-standard residues; d marks the D form. Ends that are not written are not given here. Pro(cis-4-CF3) = O=C(O)[C@@H]1C[C@H](C(F)(F)F)CN1; Phe(3-COOH) = N[C@@H](Cc1cccc(C(=O)O)c1)C(=O)O; Oic = O=C(O)[C@@H]1C[C@@H]2CCCC[C@@H]2N1; NMeI = CC[C@H](C)[C@H](NC)C(=O)O; tBuAla = CC(C)(C)C[C@H](N)C(=O)O; Pen = CC(C)(S)[C@H](N)C(=O)O; 4Amb = NCc1ccc(C(=O)O)cc1; NMeC = CN[C@@H](CS)C(=O)O; GABA = NCCCC(=O)O; Sar = CNCC(=O)O

T1: Recombinant human MASP1 enzyme (fragment corresponding to amino acids 297-699, C-terminal His Tag) (human, UniProt P48740 297-699)
T1 sequence: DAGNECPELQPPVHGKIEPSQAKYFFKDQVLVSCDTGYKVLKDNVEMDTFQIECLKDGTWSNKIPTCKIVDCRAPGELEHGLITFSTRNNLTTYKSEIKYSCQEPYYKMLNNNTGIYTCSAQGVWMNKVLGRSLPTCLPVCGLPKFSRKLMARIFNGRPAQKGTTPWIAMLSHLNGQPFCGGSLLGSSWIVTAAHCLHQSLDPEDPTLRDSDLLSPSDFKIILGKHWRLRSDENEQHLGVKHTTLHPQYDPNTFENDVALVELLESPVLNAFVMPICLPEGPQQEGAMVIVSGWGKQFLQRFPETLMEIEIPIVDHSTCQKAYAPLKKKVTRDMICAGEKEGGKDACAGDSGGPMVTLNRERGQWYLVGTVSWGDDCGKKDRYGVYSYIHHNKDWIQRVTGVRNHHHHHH


Experiments:
[1] = target: T1, Recombinant human MASP1 enzyme …; assay: cell-based or functional assay
[2] = target: Recombinant human MASP2 enzyme (fragment corresponding to amino acids 297-686, C-terminal His Tag) (human, UniProt O00187 297-686); assay: cell-based or functional assay
Recombinant human MASP2 enzyme (fragment corresponding to amino acids 297-686, C-terminal His Tag), sequence (O00187 other isoform, or with tags, fused parts or gaps limits assumed): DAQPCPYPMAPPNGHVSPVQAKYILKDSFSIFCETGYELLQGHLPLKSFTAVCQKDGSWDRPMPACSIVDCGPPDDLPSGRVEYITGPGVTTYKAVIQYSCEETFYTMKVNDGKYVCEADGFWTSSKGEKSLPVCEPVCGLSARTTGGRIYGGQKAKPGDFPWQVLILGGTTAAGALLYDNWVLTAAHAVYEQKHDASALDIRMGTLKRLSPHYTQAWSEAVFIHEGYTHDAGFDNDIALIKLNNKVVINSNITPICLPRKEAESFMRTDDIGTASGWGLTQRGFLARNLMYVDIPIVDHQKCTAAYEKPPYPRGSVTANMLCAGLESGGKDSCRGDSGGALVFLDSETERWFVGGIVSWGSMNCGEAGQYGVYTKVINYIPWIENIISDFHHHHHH

Binder	human MASP1 IC50 [1]	human MASP2 IC50 [2]
[Sar]ICSRS[tBuAla]PPI[Pen]IPP-NH2 (disulfide 3-11; N-terminus assumed; SMILES CC[C@H](C)[C@H](NC(=O)CNC)C(=O)N[C@H]1CSSC(C)(C)[C@@H](C(=O)N[C@H](C(=O)N2CCC[C@H]2C(=O)N2CCC[C@H]2C(N)=O)[C@@H](C)CC)NC(=O)[C@H]([C@@H](C)CC)NC(=O)[C@@H]2CCCN2C(=O)[C@@H]2CCCN2C(=O)[C@H](CC(C)(C)C)NC(=O)[C@H](CO)NC(=O)[C@H](CCCNC(=N)N)NC(=O)[C@H](CO)NC1=O) [((N-Me)G)-IC+SRS-((tBu)A)-PPI-(Pen)+IPP-NH2]	3.8 nM	63 nM
[Sar]ICSRSLPPICIPD-NH2 (disulfide 3-11; N-terminus assumed; SMILES CC[C@H](C)[C@H](NC(=O)CNC)C(=O)N[C@H]1CSSC[C@@H](C(=O)N[C@H](C(=O)N2CCC[C@H]2C(=O)N[C@@H](CC(=O)O)C(N)=O)[C@@H](C)CC)NC(=O)[C@H]([C@@H](C)CC)NC(=O)[C@@H]2CCCN2C(=O)[C@@H]2CCCN2C(=O)[C@H](CC(C)C)NC(=O)[C@H](CO)NC(=O)[C@H](CCCNC(=N)N)NC(=O)[C@H](CO)NC1=O) [((N-Me)G)-IC+SRSLPPIC+IPD-NH2]	13 nM	–
AICSRS[tBuAla]P[Pro(cis-4-CF3)]ICIPD-NH2 (disulfide 3-11; N-terminus assumed; SMILES CC[C@H](C)[C@H](NC(=O)[C@H](C)N)C(=O)N[C@H]1CSSC[C@@H](C(=O)N[C@H](C(=O)N2CCC[C@H]2C(=O)N[C@@H](CC(=O)O)C(N)=O)[C@@H](C)CC)NC(=O)[C@H]([C@@H](C)CC)NC(=O)[C@@H]2C[C@H](C(F)(F)F)CN2C(=O)[C@@H]2CCCN2C(=O)[C@H](CC(C)(C)C)NC(=O)[C@H](CO)NC(=O)[C@H](CCCNC(=N)N)NC(=O)[C@H](CO)NC1=O) [AIC+SRS-((tBu)A)-P-((4-CF3)P)-IC+IPD-NH2]	3.9 nM	930 nM
G[NMeI]CSRSLPPICIPD-NH2 (disulfide 3-11; N-terminus assumed; SMILES CC[C@H](C)[C@@H]1NC(=O)[C@@H]2CCCN2C(=O)[C@@H]2CCCN2C(=O)[C@H](CC(C)C)NC(=O)[C@H](CO)NC(=O)[C@H](CCCNC(=N)N)NC(=O)[C@H](CO)NC(=O)[C@@H](NC(=O)[C@H]([C@@H](C)CC)N(C)C(=O)CN)CSSC[C@@H](C(=O)N[C@H](C(=O)N2CCC[C@H]2C(=O)N[C@@H](CC(=O)O)C(N)=O)[C@@H](C)CC)NC1=O) [G-((N-Me)I)-C+SRSLPPIC+IPD-NH2]	11 nM	–
Ac-ICSRS[tBuAla]PPI[Pen]IPD-NH2 (disulfide 2-10; SMILES CC[C@H](C)[C@H](NC(C)=O)C(=O)N[C@H]1CSSC(C)(C)[C@@H](C(=O)N[C@H](C(=O)N2CCC[C@H]2C(=O)N[C@@H](CC(=O)O)C(N)=O)[C@@H](C)CC)NC(=O)[C@H]([C@@H](C)CC)NC(=O)[C@@H]2CCCN2C(=O)[C@@H]2CCCN2C(=O)[C@H](CC(C)(C)C)NC(=O)[C@H](CO)NC(=O)[C@H](CCCNC(=N)N)NC(=O)[C@H](CO)NC1=O) [Ac-IC+SRS-((tBu)A)-PPI-(Pen)+IPD-NH2]	16 nM	–
[dA]ICSRSLP[Oic]I[Pen]IPD-NH2 (disulfide 3-11) [aIC+SRSLP-(Oic)-I-(Pen)+IPD-NH2]	6.3 nM	–
AICSRS[tBuAla]P[Oic]I[NMeC]IPD-OH (disulfide 3-11; also: HCl salt) [AIC+SRS-((tBu)A)-P-(Oic)-I-((N-Me)C)+IPD-OH (HCl salt)]	3.8 nM	210 nM
[dA]ICSRSLP[Oic]I[Pen]IPD-OH (disulfide 3-11) [aIC+SRSLP-(Oic)-I-(Pen)+IPD-OH]	7 nM	–
[4Amb]ICSRS[tBuAla]PPI[Pen]IPD-NH2 (disulfide 3-11; N-terminus assumed; SMILES CC[C@H](C)[C@H](NC(=O)c1ccc(CN)cc1)C(=O)N[C@H]1CSSC(C)(C)[C@@H](C(=O)N[C@H](C(=O)N2CCC[C@H]2C(=O)N[C@@H](CC(=O)O)C(N)=O)[C@@H](C)CC)NC(=O)[C@H]([C@@H](C)CC)NC(=O)[C@@H]2CCCN2C(=O)[C@@H]2CCCN2C(=O)[C@H](CC(C)(C)C)NC(=O)[C@H](CO)NC(=O)[C@H](CCCNC(=N)N)NC(=O)[C@H](CO)NC1=O) [(4-(Aminomethyl)benzoic acid)-IC+SRS-((tBu)A)-PPI-(Pen)+IPD-NH2]	–	8.1 nM
[Sar]ICSRSLP[Oic]I[Pen]IP[Phe(3-COOH)]-NH2 (disulfide 3-11; N-terminus assumed; SMILES CC[C@H](C)[C@H](NC(=O)CNC)C(=O)N[C@H]1CSSC(C)(C)[C@@H](C(=O)N[C@H](C(=O)N2CCC[C@H]2C(=O)N[C@@H](Cc2cccc(C(=O)O)c2)C(N)=O)[C@@H](C)CC)NC(=O)[C@H]([C@@H](C)CC)NC(=O)[C@@H]2C[C@@H]3CCCC[C@@H]3N2C(=O)[C@@H]2CCCN2C(=O)[C@H](CC(C)C)NC(=O)[C@H](CO)NC(=O)[C@H](CCCNC(=N)N)NC(=O)[C@H](CO)NC1=O) [((N-Me)G)-IC+SRSLP-(Oic)-I-(Pen)+IP-((3-Carboxy)F)-NH2]	5 nM	–

Now from value to binder:

human MASP1 IC50 [1]	human MASP2 IC50 [2]	Binder
3.9 nM	170 nM	AICSRSLP[Oic]I[NMeC]I-NH2 (disulfide 3-11; N-terminus assumed; SMILES CC[C@H](C)[C@H](NC(=O)[C@@H]1CSSC[C@H](NC(=O)[C@@H](NC(=O)[C@H](C)N)[C@@H](C)CC)C(=O)N[C@@H](CO)C(=O)N[C@@H](CCCNC(=N)N)C(=O)N[C@@H](CO)C(=O)N[C@@H](CC(C)C)C(=O)N2CCC[C@H]2C(=O)N2[C@@H](C[C@@H]3CCCC[C@@H]32)C(=O)N[C@@H]([C@@H](C)CC)C(=O)N1C)C(N)=O) [AIC+SRSLP-(Oic)-I-((N-Me)C)+I-NH2]
3.8 nM	44 nM	[Sar]ICSRS[tBuAla]PPI[Pen]IP-NH2 (disulfide 3-11; N-terminus assumed; SMILES CC[C@H](C)[C@H](NC(=O)CNC)C(=O)N[C@H]1CSSC(C)(C)[C@@H](C(=O)N[C@H](C(=O)N2CCC[C@H]2C(N)=O)[C@@H](C)CC)NC(=O)[C@H]([C@@H](C)CC)NC(=O)[C@@H]2CCCN2C(=O)[C@@H]2CCCN2C(=O)[C@H](CC(C)(C)C)NC(=O)[C@H](CO)NC(=O)[C@H](CCCNC(=N)N)NC(=O)[C@H](CO)NC1=O) [((N-Me)G)-IC+SRS-((tBu)A)-PPI-(Pen)+IP-NH2]
7.1 nM	–	[Sar]ICSRSLPPICIPD-NH2 (disulfide 3-11; also: HCl salt) [((N-Me)G)-IC+SRSLPPIC+IPD-NH2 (HCl salt)]
4.4 nM	–	AICSRSLP[Oic]I[NMeC]IPD-OH (disulfide 3-11; N-terminus assumed; SMILES CC[C@H](C)[C@H](NC(=O)[C@H](C)N)C(=O)N[C@H]1CSSC[C@@H](C(=O)N[C@H](C(=O)N2CCC[C@H]2C(=O)N[C@@H](CC(=O)O)C(=O)O)[C@@H](C)CC)N(C)C(=O)[C@H]([C@@H](C)CC)NC(=O)[C@@H]2C[C@@H]3CCCC[C@@H]3N2C(=O)[C@@H]2CCCN2C(=O)[C@H](CC(C)C)NC(=O)[C@H](CO)NC(=O)[C@H](CCCNC(=N)N)NC(=O)[C@H](CO)NC1=O) [AIC+SRSLP-(Oic)-I-((N-Me)C)+IPD-OH]
3.8 nM	140 nM	HICSRS[tBuAla]PPI[NMeC]I-NH2 (disulfide 3-11; N-terminus assumed; SMILES CC[C@H](C)[C@H](NC(=O)[C@@H]1CSSC[C@H](NC(=O)[C@@H](NC(=O)[C@@H](N)Cc2c[nH]cn2)[C@@H](C)CC)C(=O)N[C@@H](CO)C(=O)N[C@@H](CCCNC(=N)N)C(=O)N[C@@H](CO)C(=O)N[C@@H](CC(C)(C)C)C(=O)N2CCC[C@H]2C(=O)N2CCC[C@H]2C(=O)N[C@@H]([C@@H](C)CC)C(=O)N1C)C(N)=O) [HIC+SRS-((tBu)A)-PPI-((N-Me)C)+I-NH2]
5.5 nM	–	G[NMeI]CSRSLPPICIPD-NH2 (disulfide 3-11; also: HCl salt) [G-((N-Me)I)-C+SRSLPPIC+IPD-NH2 (HCl salt)]
3.9 nM	100 nM	[dA]ICSRSLP[Oic]I[Pen]I-NH2 (disulfide 3-11; N-terminus assumed; SMILES CC[C@H](C)[C@H](NC(=O)[C@H]1NC(=O)[C@H]([C@@H](C)CC)NC(=O)[C@@H]2C[C@@H]3CCCC[C@@H]3N2C(=O)[C@@H]2CCCN2C(=O)[C@H](CC(C)C)NC(=O)[C@H](CO)NC(=O)[C@H](CCCNC(=N)N)NC(=O)[C@H](CO)NC(=O)[C@@H](NC(=O)[C@@H](NC(=O)[C@@H](C)N)[C@@H](C)CC)CSSC1(C)C)C(N)=O) [aIC+SRSLP-(Oic)-I-(Pen)+I-NH2]
–	210 nM	[GABA]ICSRS[tBuAla]PPI[NMeC]IPD-NH2 (disulfide 3-11; N-terminus assumed; SMILES CC[C@H](C)[C@H](NC(=O)CCCN)C(=O)N[C@H]1CSSC[C@@H](C(=O)N[C@H](C(=O)N2CCC[C@H]2C(=O)N[C@@H](CC(=O)O)C(N)=O)[C@@H](C)CC)N(C)C(=O)[C@H]([C@@H](C)CC)NC(=O)[C@@H]2CCCN2C(=O)[C@@H]2CCCN2C(=O)[C@H](CC(C)(C)C)NC(=O)[C@H](CO)NC(=O)[C@H](CCCNC(=N)N)NC(=O)[C@H](CO)NC1=O) [(Gamma-Abu)-IC+SRS-((tBu)A)-PPI-((N-Me)C)+IPD-NH2]
15 nM	–	[2‑(Morpholine)acetyl]ICSRS[tBuAla]PPI[Pen]IPD-NH2 (disulfide 3-11) [(2-(Morpholine)acetyl)-IC+SRS-((tBu)A)-PPI-(Pen)+IPD-NH2]
